From US20130078251A1 (Hoffmann-La Roche, published 2013)
Residue numbers refer to the chain shown, from its start. Values belong to the binder of their own block, whether it stands above or below them.

Tests used:
[1] = target: T1, Construct 1, CSPG repeat 15 of human MCSP with the original transmembrane region (human, UniProt Q6UVK1 2044-2246); test: FACS titration on HEK-EBNA cells transfected with the construct
T1 construct: Expressed on HEK-EBNA cells; also called construct including only the MCSP repeat 15 and the natural transmembrane domain
T1 sequence: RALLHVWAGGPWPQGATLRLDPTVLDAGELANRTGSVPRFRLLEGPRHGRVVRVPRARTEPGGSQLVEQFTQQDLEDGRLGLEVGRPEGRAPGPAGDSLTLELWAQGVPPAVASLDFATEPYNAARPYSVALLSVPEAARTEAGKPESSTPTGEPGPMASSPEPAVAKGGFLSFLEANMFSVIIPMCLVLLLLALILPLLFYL

[2] = target: T2, Construct 4, CSPG repeat 12-15 of human MCSP with the original transmembrane region (human, UniProt Q6UVK1 1702-2246); test: as above
T2 construct: Expressed on HEK-EBNA cells
T2 sequence: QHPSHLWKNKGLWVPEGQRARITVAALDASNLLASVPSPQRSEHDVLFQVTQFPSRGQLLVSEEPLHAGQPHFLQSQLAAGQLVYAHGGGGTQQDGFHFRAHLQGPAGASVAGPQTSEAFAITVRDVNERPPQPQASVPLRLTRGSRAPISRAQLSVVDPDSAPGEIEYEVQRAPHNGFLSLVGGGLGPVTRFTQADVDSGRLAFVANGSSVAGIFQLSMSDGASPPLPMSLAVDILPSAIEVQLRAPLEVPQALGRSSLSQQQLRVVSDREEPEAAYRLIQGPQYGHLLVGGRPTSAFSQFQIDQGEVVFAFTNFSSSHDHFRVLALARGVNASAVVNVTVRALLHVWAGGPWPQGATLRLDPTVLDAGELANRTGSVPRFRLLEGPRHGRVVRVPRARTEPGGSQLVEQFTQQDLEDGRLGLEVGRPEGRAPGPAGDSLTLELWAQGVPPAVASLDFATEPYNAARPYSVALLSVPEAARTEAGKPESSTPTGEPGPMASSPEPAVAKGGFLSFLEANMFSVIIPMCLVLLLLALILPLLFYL

[3] = target: T3, human MCSP D3 domain expression construct (human, UniProt Q6UVK1 1582-2224, limits assumed); test: flow cytometry titration on HEK-EBNA cells electroporated with the FLAG-tagged D3 domain construct
T3 construct: Built like the cynomolgus construct (signal peptide, N-terminal FLAG-tag); also called corresponding human expression construct; human counterpart
T3 sequence: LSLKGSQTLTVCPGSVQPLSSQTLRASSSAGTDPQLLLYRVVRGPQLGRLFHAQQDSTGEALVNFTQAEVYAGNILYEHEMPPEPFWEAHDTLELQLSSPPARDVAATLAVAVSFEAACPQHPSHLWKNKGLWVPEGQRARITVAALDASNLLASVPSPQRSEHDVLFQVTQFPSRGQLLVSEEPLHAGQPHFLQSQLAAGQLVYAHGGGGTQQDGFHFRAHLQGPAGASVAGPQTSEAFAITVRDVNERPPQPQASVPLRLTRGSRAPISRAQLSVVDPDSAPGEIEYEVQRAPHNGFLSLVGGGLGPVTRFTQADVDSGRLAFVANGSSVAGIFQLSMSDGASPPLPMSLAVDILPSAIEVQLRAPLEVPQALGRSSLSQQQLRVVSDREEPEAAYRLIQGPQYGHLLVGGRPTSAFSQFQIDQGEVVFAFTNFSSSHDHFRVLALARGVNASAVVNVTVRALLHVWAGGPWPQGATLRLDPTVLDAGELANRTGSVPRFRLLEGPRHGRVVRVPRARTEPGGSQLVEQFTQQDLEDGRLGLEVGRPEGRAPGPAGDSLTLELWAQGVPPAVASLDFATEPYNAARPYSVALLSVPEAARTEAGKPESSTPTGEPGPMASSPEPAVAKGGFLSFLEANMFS
Excerpt: (§1) An expression construct was generated that included the C-terminal part of the cynomolgus MCSP protein, a signal peptide for secretion and a N-terminal FLAG-tag (SEQ ID NO: 8) to test for crossreactivity towards the cynomolgus antigen. This domain was referred to as the D3 domain Tillet, F. et. Al, J. Biol. Chem. 272: 10769-10776 (1997). A similar construct was done for the human counterpart (SEQ ID NO: 9). An expression plasmid encoding for these two construct was electroporated into HEK-EBNA cells, and expression was confirmed with an anti-FLAG antibody. Binding of LC007 antibody was then tested by flow cytometry.

[4] = target: T4, cynomolgus MCSP D3 domain expression construct (cynomolgus, UniProt Q6UVK1 1582-2224 (human entry), limits assumed); test: as above
T4 construct: also called cynomolgus construct; cynomolgus antigen
T4 chain: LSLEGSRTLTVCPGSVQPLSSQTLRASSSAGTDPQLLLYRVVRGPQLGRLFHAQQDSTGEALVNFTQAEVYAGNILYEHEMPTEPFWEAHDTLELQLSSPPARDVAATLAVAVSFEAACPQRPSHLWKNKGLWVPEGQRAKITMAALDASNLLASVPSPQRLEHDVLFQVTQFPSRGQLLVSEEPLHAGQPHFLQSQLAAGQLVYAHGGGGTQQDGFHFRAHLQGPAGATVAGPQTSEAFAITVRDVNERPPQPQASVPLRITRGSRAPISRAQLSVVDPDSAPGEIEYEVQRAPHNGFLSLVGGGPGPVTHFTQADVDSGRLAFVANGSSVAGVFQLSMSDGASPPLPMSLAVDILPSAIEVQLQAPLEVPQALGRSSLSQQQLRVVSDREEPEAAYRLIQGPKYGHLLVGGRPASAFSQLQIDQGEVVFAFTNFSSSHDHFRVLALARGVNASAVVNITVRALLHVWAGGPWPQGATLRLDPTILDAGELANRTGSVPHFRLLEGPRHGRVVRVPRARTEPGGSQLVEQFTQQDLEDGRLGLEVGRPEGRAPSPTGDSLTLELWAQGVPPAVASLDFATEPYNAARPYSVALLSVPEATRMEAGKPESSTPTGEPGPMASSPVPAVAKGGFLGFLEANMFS
Excerpt: as §1

[5] = target: T5, human MCSP (melanoma chondroitin sulfate proteoglycan) on melanoma cells (human, UniProt Q6UVK1 30-2322); test: FACS titration on A2058 melanoma cells, FITC anti-human IgG Fc secondary antibody
T5 construct: Endogenous MCSP of human melanoma cell lines; also called surface MCSP; native form of MCSP
Procedure: (§2) Binding activity was determined by the following method. Target cells were detached from culture flask with cell dissociation buffer, counted and checked for viability. Cells were resuspended and adjusted to 1.111×10⁶ (viable) cells/ml in PBS-0.1% BSA. 180 μl of this suspension were transferred to each well (200,000 cells/well) in a round bottom 96-well-plate, centrifuged for 4 min, at 400 g, and resuspended. 20 μl of antibody dilutions in PBS-0.1% BSA (from 10 μg/ml to 0.002 μg/ml) were added to each well. The samples were centrifuged for 4 min, at 400 g, and resuspended. Secondary antibody, FITC-conjugated AffiniPure F(ab′)2 fragment goat anti-human IgG Fcg Fragment Specific (Jackson Immuno Research Lab #109-096-098)), was added and the sample centrifuged for 4 min, at 400 g, and resuspended. Fluorescence was measured in flow cytometer (e.g. FACS Canto II). Antibody 9.2.27, described in Morgan A C Jr, Galloway D R, Reisfeld R A. Hybridoma. 1981; 1(1):27-36.; GenBank Accession Numbers: GI:20797193 and GI:20797189 for light and heavy chain respectively, was used as a reference (FIG. 2). Human melanoma cell-lines Colo38, A2058, and A375 were used. Giacomini et al. 1985 (for Colo38). Marquardt H, Todaro G J. J Biol Chem. 1982 May 10; 257(9):5220-5 (for A2058). Geiser M, Schultz D, Le Cardinal A, Voshol H, García-Echeverría C. Cancer Res. 1999 Feb. 15; 59(4):905-10 (for A375).

[6] = target: T5, human MCSP (melanoma chondroitin …); test: FACS titration on Colo38 melanoma cells, FITC anti-human IgG Fc secondary antibody
Procedure: as §2

[7] = target: T6, recombinant D3 domain of MCSP (UniProt Q6UVK1 1582-2224, limits assumed); test: Biacore T100, antibody amine-coupled on CM5 chip, MCSP D3 as analyte, 1:1 model, 37 °C
T6 construct: domain: D3 domain; also called MCSP D3
T6 sequence (looked up): T3 sequence with H122R
Procedure: (§3) The monovalent binding affinities for the chimeric LC007 and the humanized variant M4-3 ML2 were determined using a Biacore assay. Briefly, the antibodies were chemically immobilized on a CM5 chip (Biacore) via amine-coupling (activation with EDC-NHS, coupling of 5000 RU for each antibody, deactivation with ethanolamine). The recombinant D3 domain of MCSP was used as analyte. The experiment was performed at 25° and 37° in HBS-EP+ running buffer on a Biacore T100. […] The surface was regenerated between injections with 10 mM glycine pH 2 for 30 s. The sensorgrams were fitted with the 1:1 binding model (with RI=0 and Rmax=local) to determine the Kd.

[8] = target: T6, recombinant D3 domain of MCSP; test: Biacore T100, antibody amine-coupled on CM5 chip, MCSP D3 as analyte, 1:1 model, 25 °C
Procedure: as §3

[9] = target: T5, human MCSP (melanoma chondroitin …); test: FACS titration on A375 melanoma cells, FITC anti-human IgG Fc secondary antibody
Procedure: as §2

T5 sequence (Q6UVK1 30-2322 limits assumed): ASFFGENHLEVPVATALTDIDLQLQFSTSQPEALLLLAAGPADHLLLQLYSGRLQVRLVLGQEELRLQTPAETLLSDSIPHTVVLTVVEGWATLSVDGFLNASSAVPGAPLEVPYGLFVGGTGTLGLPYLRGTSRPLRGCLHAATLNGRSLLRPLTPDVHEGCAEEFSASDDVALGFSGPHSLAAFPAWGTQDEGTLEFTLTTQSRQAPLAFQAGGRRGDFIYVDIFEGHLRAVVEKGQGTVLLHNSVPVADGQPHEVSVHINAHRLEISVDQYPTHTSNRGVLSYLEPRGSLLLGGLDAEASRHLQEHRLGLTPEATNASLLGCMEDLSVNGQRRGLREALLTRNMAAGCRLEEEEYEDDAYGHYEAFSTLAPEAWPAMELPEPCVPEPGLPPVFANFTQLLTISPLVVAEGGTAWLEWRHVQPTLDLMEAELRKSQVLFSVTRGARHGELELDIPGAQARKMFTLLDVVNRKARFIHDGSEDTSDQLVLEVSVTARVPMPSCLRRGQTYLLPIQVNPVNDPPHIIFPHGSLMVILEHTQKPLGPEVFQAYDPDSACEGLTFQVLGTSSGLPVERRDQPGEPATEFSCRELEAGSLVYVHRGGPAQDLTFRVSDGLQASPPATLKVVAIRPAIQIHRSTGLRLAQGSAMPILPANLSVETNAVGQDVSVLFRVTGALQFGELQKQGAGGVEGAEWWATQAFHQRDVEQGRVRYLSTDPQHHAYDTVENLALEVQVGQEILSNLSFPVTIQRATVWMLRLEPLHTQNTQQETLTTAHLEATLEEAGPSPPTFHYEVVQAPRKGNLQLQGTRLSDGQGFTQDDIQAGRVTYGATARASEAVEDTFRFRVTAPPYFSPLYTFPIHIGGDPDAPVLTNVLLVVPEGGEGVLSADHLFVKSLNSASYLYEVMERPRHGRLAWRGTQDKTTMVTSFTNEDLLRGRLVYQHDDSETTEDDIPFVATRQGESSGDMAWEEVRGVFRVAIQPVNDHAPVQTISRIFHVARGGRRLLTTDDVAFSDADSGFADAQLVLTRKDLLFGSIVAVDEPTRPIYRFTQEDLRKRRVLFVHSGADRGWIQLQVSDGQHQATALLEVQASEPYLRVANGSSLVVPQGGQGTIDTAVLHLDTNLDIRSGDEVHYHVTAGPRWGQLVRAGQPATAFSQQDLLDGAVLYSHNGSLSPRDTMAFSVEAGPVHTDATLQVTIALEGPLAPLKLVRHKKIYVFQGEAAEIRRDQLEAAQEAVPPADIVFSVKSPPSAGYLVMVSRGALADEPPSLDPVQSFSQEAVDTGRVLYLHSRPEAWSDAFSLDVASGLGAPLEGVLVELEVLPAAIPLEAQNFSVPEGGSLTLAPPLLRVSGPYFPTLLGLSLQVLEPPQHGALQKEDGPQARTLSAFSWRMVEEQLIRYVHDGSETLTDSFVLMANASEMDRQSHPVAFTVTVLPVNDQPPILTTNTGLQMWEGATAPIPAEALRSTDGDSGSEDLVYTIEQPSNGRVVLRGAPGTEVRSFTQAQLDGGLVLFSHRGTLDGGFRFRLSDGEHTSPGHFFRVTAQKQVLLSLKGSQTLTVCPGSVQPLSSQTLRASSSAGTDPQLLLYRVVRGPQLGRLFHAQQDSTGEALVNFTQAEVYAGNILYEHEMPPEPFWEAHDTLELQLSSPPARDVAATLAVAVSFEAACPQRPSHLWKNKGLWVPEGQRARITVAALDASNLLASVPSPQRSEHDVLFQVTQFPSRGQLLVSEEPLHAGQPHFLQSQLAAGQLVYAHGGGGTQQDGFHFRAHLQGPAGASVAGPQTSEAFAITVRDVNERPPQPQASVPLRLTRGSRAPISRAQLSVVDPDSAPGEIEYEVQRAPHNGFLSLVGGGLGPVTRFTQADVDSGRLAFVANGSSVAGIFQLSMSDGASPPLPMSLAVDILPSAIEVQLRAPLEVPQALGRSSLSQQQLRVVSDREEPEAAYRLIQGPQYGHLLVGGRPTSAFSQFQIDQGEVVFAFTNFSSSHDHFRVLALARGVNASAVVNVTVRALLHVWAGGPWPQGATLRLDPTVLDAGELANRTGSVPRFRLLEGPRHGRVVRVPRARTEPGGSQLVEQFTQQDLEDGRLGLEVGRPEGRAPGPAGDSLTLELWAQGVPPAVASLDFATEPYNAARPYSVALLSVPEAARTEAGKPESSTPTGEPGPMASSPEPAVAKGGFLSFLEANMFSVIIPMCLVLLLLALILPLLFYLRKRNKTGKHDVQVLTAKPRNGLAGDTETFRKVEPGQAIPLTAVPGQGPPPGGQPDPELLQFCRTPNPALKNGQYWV

binding result [1]: no binding (tested: 5 ug/ml)
EC50 (read off the curve) [2]: ~0.3 µg/mL
EC50 (read off the curve) [3]: ~0.08 µg/mL
EC50 (read off the curve) [4]: ~0.1 µg/mL
EC50 (read off the curve) [5]: ~0.03 µg/mL
EC50 (read off the curve) [6]: ~0.05 µg/mL
Kd [7]: 10.8 nM
Kd [8]: 9.8 nM
EC50 (read off the curve) [9]: ~0.05 µg/mL
B1: chimeric antibody LC007 (antibody, human IgG1, kappa, V domains shown)
VH: EVQLQESGPGLVKPSQSLSLTCSVTGYSITSGYYWNWIRQFPGNKLEWMGYITYDGSNNYNPSLKNRISITRDTSKNQFFLKLNSVTTEDTATYYCADFDYWGQGTTLTVSS
VL: DIVLTQSPSSLSASLGDRVTISCSASQGIRNYLNWYQQRPDGTVKLLIYYTSSLHSGVPSRFSGSGSGTDYSLTISNLEPEDIATYYCQQYSKLPWTFGGGTKLEIKR
notes: also called LC007 antibody; chimeric LC007

Kd [7]: 16.6 nM
Kd [8]: 11.4 nM
B2: humanized variant M4-3 ML2 (antibody, human IgG1, kappa, V domains shown)
VH: QVQLQESGPGLVKPSQTLSLTCTVSGGSITSGYYWNWIRQHPGKGLEWIGYITYDGSNNYNPSLKSRVTISRDTSKNQFSLKLSSVTAADTAVYYCADFDYWGQGTLVTVSS
VL: DIQMTQSPSSLSASVGDRVTITCRASQGIRNYLNWYQQKPGKAPKLLIYYTSSLHSGVPSRFSGSGSGTDFTLTISSLQPEDFATYYCQQYSKLPWTFGQGTKVEIKR
notes: also called M4-3 ML2 antibody
